Assay results: IntAct's records for PubMed 31515488

B1: Isoform 1 of Cyclin-dependent kinase 2-interacting protein (Homo sapiens), Q9BW66-1 (parent)
chain: MEAKTLGTVTPRKPVLSVSARKIKDNAADWHNLILKWETLNDAGFTTANNIANLKISLLNKDKIELDSSSPASKENEEKVCLEYNEELEKLCEELQATLDGLTKIQVKMEKLSSTTKGICELENYHYGEESKRPPLFHTWPTTHFYEVSHKLLEMYRKELLLKRTVAKELAHTGDPDLTLSYLSMWLHQPYVESDSRLHLESMLLETGHRAL
partner: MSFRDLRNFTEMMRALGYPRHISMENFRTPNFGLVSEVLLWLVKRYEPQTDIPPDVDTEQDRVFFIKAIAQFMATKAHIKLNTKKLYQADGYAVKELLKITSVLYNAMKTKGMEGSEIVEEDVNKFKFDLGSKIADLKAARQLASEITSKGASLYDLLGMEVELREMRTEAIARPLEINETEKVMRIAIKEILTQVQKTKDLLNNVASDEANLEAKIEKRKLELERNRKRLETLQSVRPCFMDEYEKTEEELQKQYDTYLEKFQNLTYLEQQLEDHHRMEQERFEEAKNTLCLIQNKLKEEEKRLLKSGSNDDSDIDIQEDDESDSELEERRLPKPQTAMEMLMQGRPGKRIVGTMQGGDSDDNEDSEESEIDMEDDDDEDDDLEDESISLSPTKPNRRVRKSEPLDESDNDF
B2: Cytohesin-4 (Homo sapiens), Q9UIA0 (parent)
chain: MDLCHPEPAELSSGETEELQRIKWHRKQLLEDIQKLKDEIADVFAQIDCFESAEESRMAQKEKELCIGRKKFNMDPAKGIQYFIEHKLLTPDVQDIARFLYKGEGLNKTAIGTYLGERDPINLQVLQAFVDCHEFANLNLVQALRQFLWSFRLPGEAQKIDRMMEAFATRYCLCNPGVFQSTDTCYVLSFSIIMLNTSLHNPNVRDRPPFERFVSMNRGINNGSDLPEDQLRNLFDSIKSEPFSIPEDDGNDLTHTFFNPDREGWLLKLGGRVKTWKRRWFILTDNCLYYFEFTTDKEPRGIIPLENLSVQKVDDPKKPFCLELYNPSCRGQKIKACKTDGDGRVVEGKHESYRISATSAEERDQWIESIRASITRVPFYDLVSTRKKKIASKQ
B3: Uncharacterized protein C12orf50 (Homo sapiens), Q8NA57 (parent)
chain: MEMQQNCSISCFWETQPLGCVKISCIFYHSKPRNINGLFLPPSSNITLQKEIQEGIPLQSQSQEPLKPQENISRPIHHPLVLKTNFEEEEEVDEQNDASSLWTKTPEEIEEKRAIKEMCYKSGEYYRFHTPPDILSSKSMTPTAEKQLEKPLENGSELQEGDSLTVPTKLSQYERQGEIKTSLHGKPKTDIAAFENGGGDCYVPQRVIFLGVDESEALTEEKEITISKCSNTKDNKDSPHPKHSLTTRLVPTTHVLNATENISMKCREDPSSMNDVQPVKKPHFKGVKKRKWIYDEPQNFPNSGMQRAVQAPRPQNKMSYHRNNKNRNAENASYIHVQRDAVRTVALNAPSRSRPTHGSYNKVHANREPKPNLSPDKYTSTSYNDSAWRKRIPFSKTYSKSEKIYPEPRRNGSK
partner: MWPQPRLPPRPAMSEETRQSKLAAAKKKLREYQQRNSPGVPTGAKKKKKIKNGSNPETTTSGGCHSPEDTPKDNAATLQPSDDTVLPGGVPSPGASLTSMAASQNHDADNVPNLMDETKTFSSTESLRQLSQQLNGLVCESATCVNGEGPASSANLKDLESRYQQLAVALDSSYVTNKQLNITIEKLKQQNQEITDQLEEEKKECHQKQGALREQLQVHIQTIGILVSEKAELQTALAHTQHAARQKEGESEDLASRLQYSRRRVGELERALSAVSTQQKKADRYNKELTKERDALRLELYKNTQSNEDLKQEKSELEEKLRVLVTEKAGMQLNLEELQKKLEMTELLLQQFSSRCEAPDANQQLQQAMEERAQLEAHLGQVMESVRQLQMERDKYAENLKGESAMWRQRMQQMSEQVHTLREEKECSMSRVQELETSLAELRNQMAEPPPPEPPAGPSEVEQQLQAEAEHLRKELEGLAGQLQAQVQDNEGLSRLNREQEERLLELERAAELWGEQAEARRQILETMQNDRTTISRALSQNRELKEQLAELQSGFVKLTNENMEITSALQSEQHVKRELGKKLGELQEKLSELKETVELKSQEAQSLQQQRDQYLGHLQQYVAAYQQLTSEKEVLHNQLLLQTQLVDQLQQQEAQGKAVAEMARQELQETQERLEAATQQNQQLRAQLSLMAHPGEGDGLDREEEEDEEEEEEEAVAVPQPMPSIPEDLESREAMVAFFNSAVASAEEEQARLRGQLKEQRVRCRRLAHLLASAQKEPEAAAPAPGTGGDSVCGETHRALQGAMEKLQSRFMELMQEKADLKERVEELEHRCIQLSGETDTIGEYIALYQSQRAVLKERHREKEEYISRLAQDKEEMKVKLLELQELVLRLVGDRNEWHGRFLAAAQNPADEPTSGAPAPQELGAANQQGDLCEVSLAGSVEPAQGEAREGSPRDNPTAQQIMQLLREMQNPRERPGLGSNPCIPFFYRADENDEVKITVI

Variants of: B1
Details: with clua1_human CLUAP1, Q96AJ1

effect of a mutation on the interaction | Variant
with no effect | D177N

Variants of: B1
Details: with clua1_human CLUAP1, Q96AJ1
Remark: another data set of the same source

effect of a mutation on the interaction | Variant
disrupting interaction strength | R164H

Variants of: B2
Details: with fos_human FOS

effect of a mutation on the interaction | Variant
with no effect | A9T
with no effect | M74V

Variants of: B3
Details: with goga2_human GOLGA2, Q08379

effect of a mutation on the interaction | Variant
with no effect | Y334C
with no effect | Q306R
